This data set can be described thus: label from the status in PepcDB records.
As for “MTTKRVKKMGKEEMKEMFDLVIYAFNQEPTAERQERFEKLLSHTQSYGFLIDEQLTSQVMATPFQVNFHGVRYPMAGIGYVASYPEYRGEGGISAIMKEMLADLAKQKVALSYLAPFSYPFYRQYGYEQTFEQAEYTIKTEDWPRVKRVPGTIKRVSWADGKEVIKDVYLENQRAHSGGVIRETWWLDYTLNRASKPNNQAIYYSSEGKAEGYVIYRIAAGTFEIVEWNYLTNTAFKALAGFIGSHSGSVQSFHWINGFAGKDLNDLMPTPAASVKILPYMMARIVELQTFLEKYPFQSGEKETYSLEIEDSYGPWNEGIWTITIDEQGKATVTKGAAEKEGTAALKADIQTWTQLFLGYRSAETLSFYERLQGDATIAQRLGQRLVKGMPILEDYF”, the protein production result is on record as “not failed”.

With “MTTMQSRERLVKWLQDAYAMEKEAETMMAAMASRIEHYPELKRRIEQHVEETQQQSAGVQRCLELLNGSIPTAKGMLSSVLASMHAAGNSMMTDEVTKGVGISYAFEHLEIASYRALVVAARSAGEQEVAQICEDILQQEIEMAEWLIEHQEAIVVAFLEREQLEGVTAKR”, the protein production result is “not failed”. Turning to “MTTPPARTAKQRIQDTLNRLELDVDAWVSTAGADGGAPYLVPLSYLWDGETFLVATPAASPTGRNLSETGRVRLGIGPTRDLVLVEGTALPLEPAGLPDGVGDTFAEKTGFDPRRLTTSYLYFRISPRRVQAWREANELSGRELMRDGEWLVTD”, the protein production result is recorded as “not failed”. With “MTTPSRRRLMRDFKKLQEDPPAGVSGAPTEDNILTWEAIIFGPQETPFEDGTFKLSLEFTEEYPNKPPTVKFISKMFHPNVYADGSICLDILQNRWSPTYDVAAILTSIQSLLDEPNPNSPANSLAAQLYQENRREYEKRVQQIVEQSWLNFGENEGDAVLKDDVEIEEIAAPGANDADDDRMDEGASGSNA”, the protein production result is given as “not failed”.

For “MTTPTPIRMLILEDSEDDLLLLLREVRRGGIDPAYERADSAAGLRRALDAGEWDVIVSDYNMPQFGALPALDIVKERGLDVPFIIVSGKIGEDLAVAAMKAGAHDYLMKGNLSRLVPAIERELREADERRRRRQAEEAMHAQFNQISTIFDSLNALVYVVDMNSYELLYLNKFGAQLFGEAWEGRTCHDVLHGGRSTPCDFCTNDKLIMDGKALPPYIWEYQNSISSRWYQCIDKAIRWTDGRMVRMEIAIDITERKEMERMKDEMISAVSHEMHTPLTAMMGFTEFLLENEVDRDLQKNYLKTIYRETERLNELITNFLQLQRLKASMVKFRITPVAVGLLVADVVSLYAAASKKHRIVVECPPDLPPVRGNEEQLYQAISNLVSNAIKYSPDGGDVTIGASAAADIVTLWVRDQGIGISPEFQEKIFERFFRVDNSDRRKVGGAGLGLTLVREIVATHGGRSWVESSPGKGSTFFISLPAMT”, the protein production result was “failed”. The same measure for “MTTPVNGSVIPLISLRESRMPSLTDGAIRRALKQVEQTQKPVTLADGEGRGIGRLILFVRPMPTRVIAYWLVQQWRAGARSRKKIGAYPSMSLNQARNIFDRDFADAIQKGRSIKALGDTRAGTLGDLFDAYIAHLKSSGKKSWKEAEKGLNKVADTLGRHRPARDIEPHEIVDIIRPIYGRGTRSMADHVRGYLRAAFSWGIKSEHDYRHASPRRFGLTKNPAAGIPSEPYVPGNRWLDEEEFLRLYRWLECPDTPVHPPYTRAVRLLMLTGQRVEEIARLHIAQWDAKERIIDWSTTKNGKPHAIPVPDLAAELLESIKPNNYGWFFPSAFDPSKPVAHNTLYSFMWRQRERGVIPVVTNRDLRRTWKTLAGKAGLSKEIRDRLQNHTLQDVSSKAYDRWNYMPEKRAAMKQWNSFVRSVLTPDRLTSAA”: “failed”. The same measure for “MTTQKLLSDCQFCSVVSKNNGEDPIGTANTSDNWLVLEAALPWTEEHLHSDRILSQIHDLFHELENRHIPVIPIAIAPDREYSVPGYVRALHYKRPTKSFAEFEKQEFLIPESQIGQFTSGFLEYPNDLDQFQTYQQPKNHIREIMVCTHGNVDVACSRFGYPIYQNLRQNYAAKSAGQLRVWRCSHIGGHQFAPTLFDLPTGQFWGHIEPEILDVLVWRNSPVKQLRQFYRGWSGMTKFEQIVEREIWMQHGWEWLQYQKSGQVLAKDTTNDEWNADWAEVRIDFTSPDNSIQGSYLARVEACSQVMTVFNSGKEQPLETVKQYRVSQLTQQLINI”: “failed”; for “MTTQMPIASPRTEFYERAFGGFHDQAVAEVRKETYGEDLGQNDWSTVDEMRQFSQWLELSPQSHLLDVCSGSGGPALFLARNSGCRVTGVDLHPDALQTGRQLAQALELHDRSQFVECDVRQRMPFPDGTFDALWCIDSVIHIPDRLALLREWCRLLKPGGRFLYTDPTLVTGMVSKEEILLRGTPGYFLYTPIGLNERLIEQAGLRLDMQADLTHSITELSERWHAAREKRCAVLTATEGEEAFARMQSFLTATHRVSVEGRLSRWVFVGVRP”: “failed”. The same measure for “MTTQTIDSAPHATWFVGASYGGTDDQMPRFLAEGIWENGYDDKLLEVVRSMRPGERIAIKSSYTRKHGLPFDSRGRAVSVMGIKAVGTITENLNDGKRVKVDWAKVEPVREWYFYTHRATIWRVLPGEWMNDALIAFAFDGKPQDVDRFRNEPFWRERYGTTSPEKQRFEWTDFYEAVAEKLLAHADDRTPLIEGIHEIASRVPGLTYLQDKFPDGTSGPLRDICPFTTMGTFNRSMTDANRKTLAGELAKLLGVTVPVPPSFEGIPVLNNQRSWFFAYADKRGAGDIDALWKVFVAASKMVDGDQLDTRDAFIRAYDEATQVWGVAWNLSTGLYWAHPWEFLTLDSQSRHYINKRLGLNVAISGQQGPCDGRAYLKLLDDLRSRFGEDGYPVHSFPDLSLASWMYKDPVDEPVPAGDIGTNAGAEQETEGEVREAFQVAAPIVPYSVEDILKDGCFLERAEIDRLLDRLRTKKNLILQGPPGTGKTWLAKRLAFALMGQKDDSKVRAVQFHPNLSYEDFVRGWRPTGEGKLSLADGVFMEAIKAASKDPSSKFVVVIEEINRGNPAQIFGELLTLLEAGKRTPNEALELCYPDADGKRRPVHIPENLYVVGTMNIADRSLALVDLALRRRFAFVGLEPRLGQVWRDWVVKECAVDPGLVADIERRIAELNDQIAADARLGKQFRIGHSYVTPAHRLEAGDTKKWFLQVVETEIGPLLDEYWFDAPDEAQKAIARLTQGWLEHHHHHH”: “not failed”. “MTTSIGGLFFNLVALSLLSAIGLGVVHGITYSKWMPLLGNNATFGIHKFSIQVNVKECIKGCMLAILTMVPFIIVIGIMIAPVFQQLMMMTMLGGSDAGSEFVLQYYPQIMASYFLYFVAILVFASYLYVTLRNLFLNNLTLANGTIRFHSSVTAIGMLLRMLAVLMGSSITCGLAYPWLKMWMVSWIANNTHVQGDLDSLELTNDDKPQDSGSLMWISRGIMPYVPFI”: the protein production result is “failed”. On to “MTTTGHVHFYIGTYTNPPSTSTSTGIARLSLNTETGELTRLDDVVVQRNPSYLTTTEHGLYTFSEMDRNEGTELAFFRGSESVSLPINGDYPCHLDIKEPLLAVANYGSGNVSVFQLDRDGKPLGLLADLYVDGCGPNLERQTSPHAHQVTFLKHSHQLVVVDLGSDSVLIYDYDAQPPDFSLSQVIHLPAGSGPRHVVFNQQESTAYVVCELSETLIVLVKHQDKWLISNQTELLEGEENQQAAAAIRLSQDETFLYVSCRAQNKISMFDVSGDTPKRRAAIHCEGVFPRDFVLSHDQKWLLVANQHSNNVVSFRRNPQTGEITPTGYDCEIGSPVCIVEQPLLEHHHHHH”, for which the protein production entry is recorded as “failed”. In the case of “MTTYLIIGANRVGQLVARQLATESATVRLLHDGKETLPSDLATQVTELTGDLTQEATYTAALQDQPIIFSALTGMDVDLAFEALFDAQYHQRLTFQRFVMLSTAGVDQEVTGDLAYPGITDVAEYLKQQRYAAKLVDEAEFPYTILRPVTLADSPRRDPQIIKEGAAVPAGTVSRETVAQVAVSLLQAGGADYQSLAICLEHHHHHH”, the protein production entry was “failed”. As to “MTTYTFDQVEEAIEQLYPDFTINTIEISGEGNDCIAYEINGNFIFKFPKHSRASINLLNEVTVLKTIHNELSLPIPEVVFTGMPSEMCQMSFAGFTKIKGVPLTPLLLKNLPKQSQDQAAKDLARFLSELHSINISGFKSNLVLDFREKINEDNKKIKKLLSRELKGHQMKKVDDFYRDILDNEIYFKYYPCLIHNDFSSDHILFDTEKNTICGIIDFGDAAISDPDNDFISLMEDDEEYGMEFVSKILNHYKHKDIPTVLEKYMMKEKYWSFEKIIYGKEYGYMDWYEEGLNEIRSIKIK”, the protein production result is “not failed”.

With “MTVAGLWLFAMALGASALGGMLGMASGIFIVPLLVLWGIDVHAAIAASIVSVIACSCGSAAAFLQSGLTHVRLAVVLETATTLGALTSVFLVGAVPVAALYALFAVVLVVSAWQMLARRRDPARASGAPACRWAGALRLHGRYRDPAAGRHRRYRVQRLPLGMSLMYGAGVLSALLGIGSGVLKIPAMDSALRLPLKVSSATSNFMIGVTAAASAAVYFARGEIDPAVAGPVALGSVAGSVLGARILMHVSGERLRLLFVAVLALLAVQMLLMALGVQWPGGGR”, the protein production result is listed as “failed”.

With “MTVEYTASDLATYQNEVNEQIAKNKAHLESLTHPGSKVTFPIDQDISATPQNPNLKVFFFDIDNCLYKSSTRIHDLMQQSILRFFQTHLKLSPEDAHVLNNSYYKEYGLAIRGLVMFHKVNALEYNRLVDDSLPLQDILKPDIPLRNMLLRLRQSGKIDKLWLFTNAYKNHAIRCLRLLGIADLFDGLTYCDYSRTDTLVCKPHVKAFEKAMKESGLARYENAYFIDDSGKNIETGIKLGMKTCIHLVENEVNEILGQTPEGAIVISDILELPHVVSDLF”, the protein production result is “not failed”. The same measure for “MTVIDDRDMMGAESSELSEAGARDYFELLKPRVMSLVVFTAFAGLVLAPGEINPILGLIAILCIAVGAGASGALNMWYDADIDAVMTRTAKRPIPSGRIAPREALAFGLTLSAFSVVILGLAVNWFSAGLLAFTIFFYAVVYTMWLKRSTPQNIVIGGAAGAFPPMLGWACVTGGVSLDSVILFLIIFLWTPAHFWALALFKMRDYGAVGIPMMPNVAGERSTKNQMIVYAVLTAAAAVAPFFTGLASAGYGIFAAVLSAIFVYCSFDVRRMPEGDEKMLPAKKMFAYSVLYLFAIFSGLLADHFAPALKAVISGVL”: “failed”; for “MTVIIAGERSGAGKTTITLAMLAYLARQKLRVQSFKVGPDYIDPMFHSQITGRPCRNLDPFLTSEAYVQRCFHYHSQGTPYSLIEGVMGLFDGVPYQGLTDYSSTAHIARLLNLPIVFVMDCQRLSGSVAAIVQGYRHWQPGVNLVGVILNRVGGDRHLELLKIALEPLRIPILGVFFRQQDLTLPDRHLGLVPCGELPQIQQYFDQLAHVAAQQLDWPKLLPLLETPRNLPSPMSLFDVPQKSPQARLAIAQDQAFNFYYADNLDLLTHCGFELIPFSPLEDTELPPAIDGVYLGGGFPELFAEQLSQNQALKDQLKTLIHQGLPTYGECGGLMYLSQSLTNFEGQIFPMLEMLPTAVTMGGKLSLGYRQAQVVNSHSWLWQTESLRGHEFHRSQMTKLPNQALYRQRGLLAIDQNTTDGWCVGSVQASYLHLHWGSQISTVEKFRAACLAFQKKLSYLGKHPPFKSVPLRNTGGDAHGRE”: “failed”. The entry for “MTVKTEAAKGTLTYSRMRGMVAILIAFMKQRRMGLNDFIQKIANNSYACKHPEVQSILKISQPQEPELMNANPSPPPSPSQQINLGPSSNPHAKPSDFHFLKVIGKGSFGKVLLARHKAEEVFYAVKVLQKKAILKKKEEKHIMSERNVLLKNVKHPFLVGLHFSFQTADKLYFVLDYINGGELFYHLQRERCFLEPRARFYAAEIASALGYLHSLNIVYRDLKPENILLDSQGHIVLTDFGLCKENIEHNSTTSTFCGTPEYLAPEVLHKQPYDRTVDWWCLGAVLYEMLYGLPPFYSRNTAEMYDNILNKPLQLKPNITNSARHLLEGLLQKDRTKRLGAKDDFMEIKSHVFFSLINWDDLINKKITPPFNPNVSGPNDLRHFDPEFTEEPVPNSIGKSPDSVLVTASVKEAAEAFLGFSYAPPTDSFL” is “failed”.

The values are drawn from a protein production outcome set (Wang et al. 2014).
